# Data taken from patent US20210340209A1 (IMMUNE TARGETING, published 2021).
# B1: human IL-2R beta (receptor)
# chain: AVNGTSQFTCFYNSRANISCVWSQDGALQDTSCQVHAWPDRRRWNQTCELLPVSQASWACNLILGAPDSQKLTTVDIVTLRVLCREGVRWRVMAIQDFKPFENLRLMAPISLQVVHVETHRCNISWEISQASHYFERHLEFEARTLSPGHTWEEAPLLTLKQKQEWICLETLTPDTQYEFQVRVKPLQGEFTTWSPWSQPLAFRTKPAALGKDT
# notes: Soluble IL-2R beta reagent, titrated on yeast and used in ELISA; also called IL-2 receptor beta
# Target: T1, human IL-2 mutant V1 (human, UniProt P60568 21-153)
# T1 construct: Mutein found by yeast surface display screen; the ELISA format (any tag or Fc) is not described; also called IL-2 mutein
# T1 chain: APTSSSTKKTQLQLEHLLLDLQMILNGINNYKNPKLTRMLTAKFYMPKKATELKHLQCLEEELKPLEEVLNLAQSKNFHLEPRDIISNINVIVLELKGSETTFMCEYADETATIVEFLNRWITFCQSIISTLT
# Assay: ELISA
binder,measurement,value
B1,fold stronger binding than to IL-2 WT,~20 times
